The supplement of paper PMC7877785
± gives the uncertainty stated by the source.

Assay: self-splicing fitness, log relative to wild type (ln ratio); higher = more splicing; Tetrahymena group I intron in knt gene, E. coli kanamycin selection, DiMSum; sequences stand for … in CUCUCU…GGAGGGAAAAGUUAUCAGGCAUGCACCUGGUAGCUAGUCUUUAAACCAAUAGAUUGCAUCGGUUUAAAAGGCAAGACCGUCAAAUUGCGGGAAAGGGGUCAACAGCCGUUCAGUACCAAGUCUCAGGGGAAACUUUGAGAUGGCCUUGCAAAGGGUAUGGUAAUAAGCUGACGGACAUGGUCCUAACCACGCAGCCAAGUCCUAAGUCAACAGAUCUUCUGUUGAUAUGGAUGCAGUUCACAGACUAAAUGUCGGUCGGGGAAGAUGUAUUCUUCUCAUAAGAUAUAGUCGGACCUCUCCUUAAUGGGAGCUAGCGGAUGAAGUGAUGCAACACUGGAGCCGCUGGGAACUAAUUUGUAUGCGAAAGUAUAUUGAUUAGUUUUGGAGUACUCGUGGUCG
How it was run: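 Six replicate transformations of E. coli BL21(DE3) with a pET-22b(+) library were grown overnight at 37°C or 30°C. The library randomised all eight P1ex-region intron nucleotides, the intron lying in the knt kanamycin-resistance gene, and plates were LB agar with or without 25 μg/mL kanamycin plus 100 μg/mL carbenicillin, 50 μM IPTG and 0.2% rhamnose. Pooled colonies were amplicon-sequenced on an Illumina HiSeq 2500, and fitness is the DiMSum error-weighted combination of wild-type-normalised replicate fold changes, kanamycin versus none.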

Row | Sequence | self-splicing fitness (ln) (30 °C) | self-splicing fitness (ln) (37 °C)
1 | CUUGAGCAAUAUUACGGUGC | -3.34 ± 0.35 | -2.19 ± 0.42
2 | CUUGAGCAAUAUUACGGUUA | -2.25 ± 0.15 | -3.21 ± 0.3
3 | CUUGAGCAAUAUUACGUAAC | -1.67 ± 0.38 | –
4 | CUUGAGCAAUAUUACGUGAG | -2.89 ± 0.12 | -1.28 ± 0.12
5 | CUUGAGCAAUAUUACGUGCU | -1.93 ± 0.11 | -3.89 ± 0.42
6 | CUUGAGCAAUAUUACGUUAU | -3.45 ± 0.27 | -2.77 ± 0.36
7 | CUUGAGCAAUAUUACGUUGU | -3.73 ± 0.14 | -2.94 ± 0.14
8 | CUUUAGCAAUAUUACGAAAC | – | -1.65 ± 0.32
9 | CUUUAGCAAUAUUACGAGCG | -1.16 ± 0.073 | 0.0581 ± 0.12
10 | CUUUAGCAAUAUUACGAGGG | -3.57 ± 0.21 | -2.26 ± 0.27
11 | CUUUAGCAAUAUUACGAGUG | -0.24 ± 0.06 | -0.267 ± 0.077
12 | CUUUAGCAAUAUUACGCACC | -2.92 ± 0.43 | –
13 | CUUUAGCAAUAUUACGCAGU | -1.8 ± 0.3 | -2.34 ± 0.49
14 | CUUUAGCAAUAUUACGCUAU | -3.66 ± 0.31 | -1.68 ± 0.23
15 | CUUUAGCAAUAUUACGGAGU | – | -2.46 ± 0.48
16 | CUUUAGCAAUAUUACGGGCA | -3.41 ± 0.26 | -2.67 ± 0.21
17 | CUUUAGCAAUAUUACGGGUG | -0.377 ± 0.072 | 0.108 ± 0.091
18 | CUUUAGCAAUAUUACGGUCG | -0.496 ± 0.055 | -0.259 ± 0.083
19 | CUUUAGCAAUAUUACGUAAU | -2.49 ± 0.16 | -2.78 ± 0.33
20 | CUUUAGCAAUAUUACGUAGA | -2.52 ± 0.22 | -2.53 ± 0.33
21 | CUUUAGCAAUAUUACGUCAC | – | -0.481 ± 0.4
22 | CUUUAGCAAUAUUACGUCCG | -0.0797 ± 0.084 | -0.326 ± 0.099
23 | CUUUAGCAAUAUUACGUCCU | – | -1.9 ± 0.31
24 | CUUUAGCAAUAUUACGUCGU | -2.27 ± 0.36 | -3.05 ± 0.37
25 | CUUUAGCAAUAUUACGUCUG | -0.534 ± 0.094 | -0.218 ± 0.12

Row | Sequence | self-splicing fitness (ln) (30 °C) | self-splicing fitness (ln) (37 °C)
26 | CUUUAGCAAUAUUACGUGUC | -2.98 ± 0.21 | -1.55 ± 0.17
27 | CUUUAGCAAUAUUACGUUAC | -3.92 ± 0.34 | -1.74 ± 0.29
28 | CUUUAGCAAUAUUACGUUGU | -3.88 ± 0.17 | -3.45 ± 0.21
29 | CUUUAGCAAUAUUACGUUUA | -3.03 ± 0.24 | -1.64 ± 0.17
30 | GAAAAGCAAUAUUACGAAAG | -3.5 ± 0.15 | -1.9 ± 0.14
31 | GAAAAGCAAUAUUACGAAUU | -1.37 ± 0.11 | -0.667 ± 0.12
32 | GAAAAGCAAUAUUACGACUC | 0.143 ± 0.2 | -0.00506 ± 0.28
33 | GAAAAGCAAUAUUACGAGCU | -0.618 ± 0.069 | -0.352 ± 0.091
34 | GAAAAGCAAUAUUACGCACA | -0.807 ± 0.093 | -0.0907 ± 0.14
35 | GAAAAGCAAUAUUACGCCGC | -2.23 ± 0.25 | –
36 | GAAAAGCAAUAUUACGCGAU | -2.88 ± 0.28 | -2.32 ± 0.33
37 | GAAAAGCAAUAUUACGCGCC | -2.06 ± 0.16 | -1.25 ± 0.17
38 | GAAAAGCAAUAUUACGCGGA | -2.25 ± 0.14 | -0.603 ± 0.13
39 | GAAAAGCAAUAUUACGCUUC | -3.71 ± 0.12 | -2.77 ± 0.14
40 | GAAAAGCAAUAUUACGGACU | 0.147 ± 0.069 | 0.272 ± 0.087
41 | GAAAAGCAAUAUUACGGAUA | -1.32 ± 0.13 | -1.18 ± 0.12
42 | GAAAAGCAAUAUUACGGCUU | -0.227 ± 0.082 | 0.0447 ± 0.096
43 | GAAAAGCAAUAUUACGGGAC | -1.06 ± 0.12 | -2.06 ± 0.18
44 | GAAAAGCAAUAUUACGGGAU | -2.18 ± 0.14 | -1.26 ± 0.12
45 | GAAAAGCAAUAUUACGGGCC | -1.09 ± 0.14 | -1.37 ± 0.17
46 | GAAAAGCAAUAUUACGGGGG | -3.11 ± 0.21 | -1.15 ± 0.17
47 | GAAAAGCAAUAUUACGGGGU | -3.91 ± 0.26 | -2.32 ± 0.23
48 | GAAAAGCAAUAUUACGGGUG | -2.23 ± 0.079 | -1.18 ± 0.1
49 | GAAAAGCAAUAUUACGUAGC | -2.66 ± 0.15 | -1.51 ± 0.15
50 | GAAAAGCAAUAUUACGUAUG | -1.6 ± 0.079 | -1.74 ± 0.12
